Experimental findings from patent publication US20230203142A1 (published 2023) are described below.

Common to all, as to test: MST
Assay [1] has as its target human NDPK-A (nucleoside diphosphate kinase A), full-length recombinant (UniProt P15531 2-152).
Assay [2] has as its target human ADK (adenosine kinase), recombinant (UniProt P55263 2-362).
In assay [3] the target is T1, recombinant human FABP4 (fatty acid binding protein 4) (UniProt P15090 2-132).
T1 chain: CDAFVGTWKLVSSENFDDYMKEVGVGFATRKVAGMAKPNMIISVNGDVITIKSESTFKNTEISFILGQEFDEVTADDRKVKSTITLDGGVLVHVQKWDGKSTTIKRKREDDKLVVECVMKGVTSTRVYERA

Chain of human ADK (adenosine kinase), recombinant (P55263 2-362): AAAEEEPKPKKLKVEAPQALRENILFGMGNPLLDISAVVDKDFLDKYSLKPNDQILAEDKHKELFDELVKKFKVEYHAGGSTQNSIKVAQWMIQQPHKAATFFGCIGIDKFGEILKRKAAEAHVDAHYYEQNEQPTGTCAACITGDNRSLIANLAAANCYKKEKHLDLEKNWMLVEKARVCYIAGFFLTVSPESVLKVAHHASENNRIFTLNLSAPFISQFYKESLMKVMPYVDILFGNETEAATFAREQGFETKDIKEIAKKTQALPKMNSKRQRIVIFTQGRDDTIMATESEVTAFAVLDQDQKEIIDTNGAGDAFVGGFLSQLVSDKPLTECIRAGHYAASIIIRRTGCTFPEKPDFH
Chain of human NDPK-A (nucleoside diphosphate kinase A), full-length recombinant (P15531 other isoform, or with tags, fused parts or gaps): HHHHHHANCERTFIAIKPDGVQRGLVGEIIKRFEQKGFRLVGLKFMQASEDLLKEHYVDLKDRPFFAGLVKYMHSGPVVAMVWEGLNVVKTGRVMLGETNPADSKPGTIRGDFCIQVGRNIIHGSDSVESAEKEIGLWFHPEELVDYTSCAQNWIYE

B1: CA33 (a-Ab) monoclonal antibody (antibody)
heavy: QSVEESGGRLVTPGTPLTLTCTVSGFSLSTYYMSWVRQAPGKGLEWIGIIYPSGSTYCASWAKGRFTISKASTTVDLKITSPTTEDTATYFCARPDNDGTSGYLSGFGLWGQGLVTVSSAKTTPPSVYPLAPGSAAQTNSMVTLGCLVKGYFPEPVTVTWNSGSLSSGVHTFPAVLQSDLYTLSSSVTVPSSTWPSETVTCNVAHPASSTKVDKKIVPRDC
light: DVVMTQTPASVSEPVGGTVTIKCGASEDISRYLVWYQQKPGQPPKRLIYKASTLASGVPSRFKGSGSGTDFTLTISDLECDDAATYYCQCTYGTYAGSFFYSFGGGTEVVVERTDAAPTVSIFPPSSEQLTSGGASVVCFLNNFYPKDINVKWKIDGSERQNGVLNSWTDQDSKDCTYSMSSTLTLTKDEYERHNSYTCEATHKTSTSPIVKSFNRNEC
For B1, the concentration for a half-maximal effect (EC50) amounted to 143 nM in assay [1] and 1880 nM in assay [2]. The equilibrium dissociation constant (Kd) in assay [3] is 2860 nM.

As usually defined, the EC50 is the midpoint of the concentration-response curve. A word on the Kd: it is the constant that tells how readily two partners part at equilibrium.
